Substrate in experiment [1]: CBP KIX, wild type (Example 20) (UniProt P45481)
Kind of experiment: FP, fluorescein-labelled PPKID4^P variant titrated with CBP KIX.

Substrate in the experiment “FP with CBP KIX”: CBP KIX, wild type (Example 20) (UniProt P45481)
Kind of experiment: FP with CBP KIX.

Another experiment concerns the target GST-KIXY650A (UniProt P45481). The experiment is described as follows: FP, 25 nM fluorescein-labelled peptide titrated with GST-KIXY650A, 25 C.

Square brackets hold non-standard residues; d marks the D form. Primed or numbered codes have the meaning given here. Ends that are not written are not given here. acetamidofluorescein″ = acetamidofluorescein (5-iodoacetamidofluorescein attached to the C-terminal Cys); pS = N[C@@H](COP(=O)(O)O)C(=O)O; Sar = CNCC(=O)O

The Kd is the concentration at which binding is half-saturated.

Sequence of CBP KIX, wild type (Example 20) (P45481 586-665 limits assumed): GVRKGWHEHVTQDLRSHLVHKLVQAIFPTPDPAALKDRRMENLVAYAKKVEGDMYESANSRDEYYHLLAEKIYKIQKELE
Sequence of GST-KIXY650A (P45481 586-665 Y650A): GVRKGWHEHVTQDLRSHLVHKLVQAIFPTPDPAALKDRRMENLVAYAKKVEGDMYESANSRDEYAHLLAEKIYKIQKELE

B1: PPKID4^P P5Z (designed binder)
peptide: GPSQ[Sar]TYPGDDAPVRRL[pS]FFYILLDLYLDAPGVC(acetamidofluorescein″)-NH2
As for B1, the Kd in experiment [1] turned out to be 0.8 µM. The ΔΔG relative to wild type PPKID4^P in the experiment “FP with CBP KIX” came out at 0.669 kJ/mol.

B2: PPKID4^P P2Z (designed binder)
peptide: G[Sar]SQPTYPGDDAPVRRL[pS]FFYILLDLYLDAPGVC(acetamidofluorescein″)-NH2
With B2, the dissociation constant Kd in experiment [1] amounted to 0.83 µM. In addition, in “FP with CBP KIX”, the ΔΔG relative to wild type PPKID4^P came out at 0.753 kJ/mol.

B3: KID-AB^P (peptide)
peptide: TDSQKRREILSRRP[pS]YRKILNDLSSDAPGVC-NH2
modifications: also: C-terminal Cys acetamidofluorescein-labelled in direct assays, unlabelled as competitor
In turn, B3 displayed a fold less stable than the wild type GST-KIX complex with GST-KIXY650A of 15 fold.

B4: PPKID4^P P8Z (designed binder)
peptide: GPSQPTY[Sar]GDDAPVRRL[pS]FFYILLDLYLDAPGVC(acetamidofluorescein″)-NH2
Turning to B4, the Kd in experiment [1] was 0.78 µM. In addition, the ΔΔG relative to wild type PPKID4^P in “FP with CBP KIX” turned out to be 0.628 kJ/mol.

Source of the values: patent publication US20110028686A1, “Protein binding miniature proteins” (Yale University, priority 2000, published 2011).
